In patent publication US20240360223A1 (DRAGONFLY THERAPEUTICS, published 2024):
Where a chain is given by its changes, count along the chain named. Several values for one entry are separate records, joined by “and”; a condition that tells them apart may be missing. Identical values can stand only once.

Legend:
[1] = molecular target: T1, human NKG2D (recombinant mFc-tagged dimer) (human, UniProt P26718 78-216); assay: SPR, steady state fit, average
T1 construct: also called hNKG2D
T1 sequence (looked up): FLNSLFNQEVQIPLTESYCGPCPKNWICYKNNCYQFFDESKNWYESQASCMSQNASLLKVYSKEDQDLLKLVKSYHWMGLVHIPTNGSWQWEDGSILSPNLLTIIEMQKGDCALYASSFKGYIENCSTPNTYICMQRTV
Source text: (§1) NKG2D is a native dimer, therefore recombinant mFc-tagged NKG2D dimer was used for this experiment. Two different fits were utilized to obtain the equilibrium affinity data: steady state affinity fit and kinetic fit.

[2] = molecular target: T2, cynomolgus NKG2D (recombinant mFc-tagged dimer) (cynomolgus, UniProt P61252 78-216); assay: SPR, steady state fit, average
T2 construct: also called cyno NKG2D
T2 sequence (looked up): T1 sequence (looked up) with D38N, T128I
Source text: as §1

[3] = molecular target: T1, human NKG2D (recombinant mFc-tagged …); assay: SPR, kinetics fit, average
Source text: as §1

[4] = molecular target: T2, cynomolgus NKG2D (recombinant …); assay: SPR
Source text: (§2) Two different fits were utilized to obtain the equilibrium affinity data: steady state affinity fit and kinetic fit.

[5] = molecular target: T3, human BAFF-R expressed on cells (human, UniProt Q96RJ3 1-184); assay: blocking of BAFF-biotin on hBAFF-R CHO cells
T3 construct: Cell surface BAFF-R, endogenous on B cell lines and primary B cells or overexpressed on isogenic CHO cells; also called hBAFF-R; hBAFF-R-CHO

[6] = molecular target: T1, human NKG2D (recombinant mFc-tagged …); assay: SPR, after 4 weeks at 40 °C
human CD16a V158 = molecular target: T4, human CD16a V158 (human, UniProt P08637 17-208); assay: SPR, after 4 weeks at 40 °C
T4 construct: also called hCD16aV; hCD16a V158
T4 sequence (P08637 17-208 F176V limits assumed): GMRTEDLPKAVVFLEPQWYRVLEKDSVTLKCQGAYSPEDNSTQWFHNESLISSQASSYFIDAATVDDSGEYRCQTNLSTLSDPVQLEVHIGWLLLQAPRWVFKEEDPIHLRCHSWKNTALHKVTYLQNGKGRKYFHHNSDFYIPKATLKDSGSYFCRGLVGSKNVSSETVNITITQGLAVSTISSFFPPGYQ

[7] = molecular target: T2, cynomolgus NKG2D (recombinant …); assay: SPR, steady state fit, average; remark: listed apart in the source
Source text: as §2

[8] = molecular target: T3, human BAFF-R expressed on cells; assay: flow cytometry, CHO-hBAFF-R cells
cynomolgus CD16 = molecular target: T5, cynomolgus CD16 (cynomolgus, UniProt Q8SPW2 17-208, limits assumed); assay: SPR, average
T5 construct: also called Cyno CD16; cynomolgus FcγRIII
T5 sequence (Q8SPW2 17-208 limits assumed): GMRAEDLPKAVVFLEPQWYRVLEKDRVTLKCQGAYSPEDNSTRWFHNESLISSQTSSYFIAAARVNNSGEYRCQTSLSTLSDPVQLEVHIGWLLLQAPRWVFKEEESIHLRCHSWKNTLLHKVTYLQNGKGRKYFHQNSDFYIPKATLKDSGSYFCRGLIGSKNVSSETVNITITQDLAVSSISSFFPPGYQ

cynomolgus FcRn [9] = molecular target: T6, cynomolgus FcRn (cynomolgus, UniProt Q8SPV9 24-297; Q8SPW0 21-119); assay: SPR, pH 6.0, steady state; pH 6.0; third replicate
T6 construct: also called Cyno FcRn
T6 sequence (Q8SPV9 24-297 limits assumed, chain 1 of 2): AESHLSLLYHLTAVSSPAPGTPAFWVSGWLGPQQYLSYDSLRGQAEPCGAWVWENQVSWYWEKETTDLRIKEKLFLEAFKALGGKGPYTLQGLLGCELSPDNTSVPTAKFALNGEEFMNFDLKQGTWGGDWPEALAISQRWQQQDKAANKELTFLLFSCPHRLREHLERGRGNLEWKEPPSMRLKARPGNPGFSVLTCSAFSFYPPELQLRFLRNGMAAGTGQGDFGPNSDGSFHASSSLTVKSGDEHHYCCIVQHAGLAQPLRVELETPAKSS
T6 sequence (Q8SPW0 21-119 limits assumed, chain 2 of 2): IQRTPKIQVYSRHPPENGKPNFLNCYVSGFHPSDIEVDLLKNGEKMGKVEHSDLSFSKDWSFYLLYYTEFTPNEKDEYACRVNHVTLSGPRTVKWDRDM

[10] = molecular target: T3, human BAFF-R expressed on cells; assay: cell-based or functional assay
[11] = molecular target: T2, cynomolgus NKG2D (recombinant …); assay: SPR, steady state fit
Source text: as §2

cynomolgus FcRn [12] = molecular target: T6, cynomolgus FcRn; assay: SPR, pH 6.0, steady state, average; pH 6.0; average of four replicates
[13] = molecular target: T2, cynomolgus NKG2D (recombinant …); assay: SPR, kinetics fit, average
Source text: as §2

[14] = molecular target: T3, human BAFF-R expressed on cells; assay: flow cytometry, Jeko-1 cells
[15] = molecular target: T3, human BAFF-R expressed on cells; assay: flow cytometry, Rs4;11 cells
cynomolgus FcRn [16] = molecular target: T6, cynomolgus FcRn; assay: SPR, pH 6.0, steady state; pH 6.0; first replicate
recombinant human TACI = molecular target: T7, recombinant human TACI (human, UniProt O14836 2-166, limits assumed); assay: SPR, immobilized AB1424 F3', analyte 500 nM TACI
T7 sequence (looked up): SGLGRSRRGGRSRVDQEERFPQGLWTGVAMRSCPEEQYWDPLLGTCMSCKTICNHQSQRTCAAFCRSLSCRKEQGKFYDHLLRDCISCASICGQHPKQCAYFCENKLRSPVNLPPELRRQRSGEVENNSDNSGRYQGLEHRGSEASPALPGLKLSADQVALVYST

[17] = molecular target: T2, cynomolgus NKG2D (recombinant …); assay: SPR, average
Source text: as §2

human CD32a H131 = molecular target: T8, human CD32a H131 (human, UniProt P12318 36-218, limits assumed); assay: SPR, steady state, average
T8 sequence (looked up): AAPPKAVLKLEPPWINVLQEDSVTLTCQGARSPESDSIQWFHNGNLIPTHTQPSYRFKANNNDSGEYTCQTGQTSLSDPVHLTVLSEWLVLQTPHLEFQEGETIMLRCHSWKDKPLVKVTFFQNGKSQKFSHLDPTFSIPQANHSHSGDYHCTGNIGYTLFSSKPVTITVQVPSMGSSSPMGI

[18] = molecular target: T3, human BAFF-R expressed on cells; assay: flow cytometry, human BAFF-R CHO cells
Source text: Isogenic cell lines overexpressing human and cynomolgus BAFF-R on the backbone of CHO cell line were designed.

human CD16a F158 = human CD16a F158 (human, UniProt P08637 17-208); assay: SPR, steady state
Chain of human CD16a F158 (P08637 17-208 limits assumed): as the sequence (P08637 17-208 F176V limits assumed) above, with V160F counted along it

B1: AB1424/AB1612 F3′ TriNKET (bispecific antibody, human IgG1, kappa)
chain: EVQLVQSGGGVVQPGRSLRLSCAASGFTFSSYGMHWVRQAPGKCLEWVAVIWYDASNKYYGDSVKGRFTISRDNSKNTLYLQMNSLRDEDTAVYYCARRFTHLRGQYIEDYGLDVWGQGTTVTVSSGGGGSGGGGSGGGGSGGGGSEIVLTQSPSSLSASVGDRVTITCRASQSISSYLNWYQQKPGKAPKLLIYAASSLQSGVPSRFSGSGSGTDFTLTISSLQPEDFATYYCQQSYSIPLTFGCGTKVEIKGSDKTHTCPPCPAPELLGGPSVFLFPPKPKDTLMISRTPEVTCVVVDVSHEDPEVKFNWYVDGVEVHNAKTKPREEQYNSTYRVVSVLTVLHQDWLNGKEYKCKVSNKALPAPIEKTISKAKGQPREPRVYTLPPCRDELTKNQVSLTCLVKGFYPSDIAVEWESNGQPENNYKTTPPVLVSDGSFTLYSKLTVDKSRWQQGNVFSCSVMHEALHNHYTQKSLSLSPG
heavy: EVQLVESGGGLVKPGGSLRLSCAASGFTFSSYSMNWVRQAPGKGLEWVSSISSSSSYIYYADSVKGRFTISRDNAKNSLYLQMNSLRAEDTAVYYCARGAPIGAAAGWFDPWGQGTLVTVSSASTKGPSVFPLAPSSKSTSGGTAALGCLVKDYFPEPVTVSWNSGALTSGVHTFPAVLQSSGLYSLSSVVTVPSSSLGTQTYICNVNHKPSNTKVDKKVEPKSCDKTHTCPPCPAPELLGGPSVFLFPPKPKDTLMISRTPEVTCVVVDVSHEDPEVKFNWYVDGVEVHNAKTKPREEQYNSTYRVVSVLTVLHQDWLNGKEYKCKVSNKALPAPIEKTISKAKGQPREPQVCTLPPSRDELTENQVSLTCLVKGFYPSDIAVEWESNGQPENNYKTTPPVLDSDGSFFLYSWLTVDKSRWQQGNVFSCSVMHEALHNHYTQKSLSLSPG
light: DIQMTQSPSSVSASVGDRVTITCRASQGISSWLAWYQQKPGKAPKLLIYAASSLQSGVPSRFSGSGSGTDFTLTISSLQPEDFATYYCQQGVSFPRTFGGGTKVEIKRTVAAPSVFIFPPSDEQLKSGTASVVCLLNNFYPREAKVQWKVDNALQSGNSQESVTEQDSKDSTYSLSSTLTLSKADYEKHKVYACEVTHQGLSSPVTKSFNRGEC
notes: Chain S: anti-BAFF-R scFv-CH2-CH3; chain H: anti-NKG2D VH-CH1-CH2-CH3; chain L: anti-NKG2D VL-CL; also called AB1612-002
Kd [1]: 456 nM
Kd [2]: 520 nM
Kd [3]: 456 nM
koff [4]: 0.11 s⁻¹ and 0.12 s⁻¹
kon [4]: 180000 M⁻¹ s⁻¹ and 190000 M⁻¹ s⁻¹
IC50 [5]: 6.76 nM
koff [6]: 0.1 s⁻¹
kon [6]: 210000 M⁻¹ s⁻¹
Kd (human CD16a V158): 145 nM
koff (human CD16a V158): 0.016 s⁻¹
kon (human CD16a V158): 120000 M⁻¹ s⁻¹
Kd [7]: 609 nM
EC50 [8]: 0.7 nM
Max FOB [8]: 146 fold over background
koff (cynomolgus CD16): 0.021 s⁻¹
kon (cynomolgus CD16): 76000 M⁻¹ s⁻¹
Kd (cynomolgus FcRn [9]): 1000 nM
KHYG-1-CD16a cytotoxicity on BJAB cells, EC50 [10]: 0.03 nM
Kd [11]: 618 nM and 630 nM and 589 nM and 600 nM
Kd (cynomolgus FcRn [12]): 1000 nM
Kd [13]: 596 nM
EC50 [14]: 0.13 nM
Max FOB [14]: 7 fold over background
EC50 [15]: 0.09 nM
Max FOB [15]: 4 fold over background
Kd (cynomolgus FcRn [16]): 1000 nM
binding result (recombinant human TACI): no binding (tested: 500 nM)
koff [17]: 0.11 s⁻¹
kon [17]: 190000 M⁻¹ s⁻¹
Kd (human CD32a H131): 1000 nM
EC50 [18]: 0.9 nM
Max FOB [18]: 85 fold over background
Kd (human CD16a F158): 1330 nM and 1260 nM and 1370 nM and 1430 nM
